Experimental data reported in patent publication US20170152228A1, “SCREENING METHODS FOR THE BINDING AFFINITY OF CHEMICAL […] TO BIOLOGICAL MOLECULES AND NEDD4-1 […] THE SCREENING METHODS” (Northwestern University, published 2017).

Target: ubiquitin (Homo sapiens (Human), UniProt P0CG48)
Assay: not stated how the value was obtained. It is named in the context of the fluorescence polarization assay.

Kd: 11 µM
B1: NEDD4-1 HECT domain (enzyme)
chain: GPLGSRDYKRKYEFFRRKLKKQNDIPNKFEMKLRRATVLEDSYRRIMGVKRADFLKARLWIEFDGEKGLDYGGVAREWFFLISKEMFNPYYGLFEYSATDNYTLQINPNSGLCNEDHLSYFKFIGRVAGMAVYHGKLLDGFFIRPFYKMMLHKPITLHDMESVDSEYYNSLRWILENDPTELDLRFIIDEELFGQTHQHELKNGGSEIVVTNKNKKEYIYLVIQWRFVNRIQKQMAAFKEGFFELIPQDLIKIFDENELELLMCGLGDVDVNDWREHTKYKNGYSANHQVIQWFWKAVLMMDSEKRIRLLQFVTGTSRVPMNGFAELYGSNGPQSFTVEQWGTPEKLPRAHTCFNRLDLPPYESFEELWDKLQMAIENTQGFDGVD
